Test results published in article PMC4072347 (Biochemistry, 2014).

Target: human methemoglobin (metHb) (human, UniProt P69905;P68871)
Assay: SEC

Sequence of human methemoglobin (metHb) (P69905 whole entry, chain 1 of 2): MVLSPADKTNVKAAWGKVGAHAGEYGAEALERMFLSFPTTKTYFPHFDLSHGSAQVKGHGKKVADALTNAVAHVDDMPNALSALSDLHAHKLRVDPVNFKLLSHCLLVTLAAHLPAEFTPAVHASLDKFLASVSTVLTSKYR
Sequence of human methemoglobin (metHb) (P68871 whole entry, chain 2 of 2): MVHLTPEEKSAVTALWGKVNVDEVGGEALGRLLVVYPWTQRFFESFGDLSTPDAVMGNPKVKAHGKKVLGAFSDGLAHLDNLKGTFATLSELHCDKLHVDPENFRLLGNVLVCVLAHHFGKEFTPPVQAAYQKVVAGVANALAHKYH

Binder | stoichiometry N
IsdH NEAT2 (IsdH^N2), residues Gln321-Asn464 (domain or fragment) QQYPPADESLQDAIKNPAIIDKEHTADNWRPIDFQMKNDKGERQFYHYASTVEPATVIFTKTGPIIELGLKTASTWKKFEVYEGDKKLPVELVSYDSDKDYAYIRFPVSNGTREVKIVSSIEYGENIHEDYDYTLMVFAQPITN | 1 IsdH NEAT domain per metHb (alpha/beta dimer)
IsdB^N1-L, IsdB residues Leu125-Asn339 (NEAT 1 domain with the linker) (domain or fragment) LNQELREAIKNPAIKDKDHSAPNSRPIDFEMKKKDGTQQFYHYASSVKPARVIFTDSKPEIELGLQSGQFWRKFEVYEGDKKLPIKLVSYDTVKDYAYIRFSVSNGTKAVKIVSSTHFNNKEEKYDYTLMEFAQPIYNSADKFKTEEDYKAEKLLAPYKKAKTLERQVYELNKIQDKLPEKLKAEYKKKLEDTKKALDEQVKSAITEFQNVQPTN | < 1 IsdB^N1-L per metHb
IsdH NEAT1 (IsdH^N1), residues Ala86-Leu229 (domain or fragment) ADESLKDAIKDPALENKEHDIGPREQVNFQLLDKNNETQYYHFFSIKDPADVYYTKKKAEVELDINTASTWKKFEVYENNQKLPVRLVSYSPVPEDHAYIRFPVSDGTQELKIVSSTQIDDGEETNYDYTKLVFAKPIYNDPSL | 1 IsdH NEAT domain per metHb (alpha/beta dimer)
